From US20230030529A1

Target: C4-aa^1355 monoclonal antibody
Test: competitive C4-aa^1355 ECLIA, peptide in solution against the biotinylated coating peptide

Sequence of C4-aa^1355 monoclonal antibody (VH, as listed by the source, chain 1 of 2): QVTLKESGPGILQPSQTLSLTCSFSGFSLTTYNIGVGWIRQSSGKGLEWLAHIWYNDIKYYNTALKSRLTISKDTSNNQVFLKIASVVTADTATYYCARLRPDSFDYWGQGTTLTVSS
Sequence of C4-aa^1355 monoclonal antibody (VL, as listed by the source, chain 2 of 2): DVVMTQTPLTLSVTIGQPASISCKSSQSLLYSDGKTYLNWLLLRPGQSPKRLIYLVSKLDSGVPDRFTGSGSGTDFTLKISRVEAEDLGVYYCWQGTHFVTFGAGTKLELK

signal left at the highest peptide concentration (% B/B0): 65%
Binder: MGNSGPTGAV [Deselection peptide 2 …]
